Test system: Escherichia coli TOP10
Experiment: shrunken log2 fold change of peptide-encoding DNA abundance (4.5 h post-induction vs induction); higher = less antimicrobial activity (less host growth inhibition)
Settings: time post-induction: 4.5 h; library: site-saturation at positions 5, 18, 19, 20
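Note: peptides expressed intracellularly from a pBAD plasmid library in pooled LB shake-flask culture, induced with 0.3% L-arabinose, DNA abundance read by NGS, three biological replicates, DESeq2 with apeglm shrinkage.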

| Sequence | shrunken log2 fold change |
| --- | --- |
| RRIRQRPPRLPRPRPRPEQPPRP | 0.393 |
| RRIRYRPPRLPRPRPRPFKHPRP | -0.349 |
| RRIRTRPPRLPRPRPRPPAIPRP | 0.0134 |
| RRIRDRPPRLPRPRPRPGAGPRP | 0.914 |
| RRIRARPPRLPRPRPRPPMYPRP | -0.147 |
| RRIRCRPPRLPRPRPRPGIVPRP | -0.0688 |
| RRIRPRPPRLPRPRPRPQERPRP | 0.0985 |
| RRIRIRPPRLPRPRPRPLLDPRP | -0.444 |
| RRIRKRPPRLPRPRPRPESPPRP | 0.188 |
| RRIRDRPPRLPRPRPRPVPSPRP | 0.314 |
| RRIRHRPPRLPRPRPRPRQWPRP | 0.408 |
| RRIRGRPPRLPRPRPRPEGTPRP | 1.55 |
| RRIRIRPPRLPRPRPRPANAPRP | -0.319 |
| RRIRWRPPRLPRPRPRPTWFPRP | -0.0378 |
| RRIRYRPPRLPRPRPRPSIWPRP | -1.31 |
| RRIRNRPPRLPRPRPRPYTYPRP | -0.68 |
| RRIRARPPRLPRPRPRPDQIPRP | 0.327 |
| RRIRDRPPRLPRPRPRPVQIPRP | -0.0711 |
| RRIRHRPPRLPRPRPRPVDHPRP | -0.0462 |
| RRIRARPPRLPRPRPRPIISPRP | -0.129 |
| RRIRPRPPRLPRPRPRPKWCPRP | 0.0741 |
| RRIRGRPPRLPRPRPRPAYEPRP | 0.457 |
| RRIRSRPPRLPRPRPRPWGYPRP | -0.226 |
| RRIRWRPPRLPRPRPRPQEWPRP | 0.248 |
| RRIRMRPPRLPRPRPRPCLHPRP | -0.608 |

| Sequence | shrunken log2 fold change |
| --- | --- |
| RRIRMRPPRLPRPRPRPQWRPRP | 1.5 |
| RRIRARPPRLPRPRPRPCQAPRP | 0.483 |
| RRIRGRPPRLPRPRPRPVAVPRP | 0.912 |
| RRIRGRPPRLPRPRPRPTQYPRP | 0.337 |
| RRIRNRPPRLPRPRPRPDCEPRP | 0.0108 |
| RRIRERPPRLPRPRPRPRSDPRP | -0.323 |
| RRIRSRPPRLPRPRPRPAAWPRP | 0.226 |
| RRIRVRPPRLPRPRPRPRCHPRP | 0.115 |
| RRIRPRPPRLPRPRPRPMKFPRP | -0.248 |
| RRIRDRPPRLPRPRPRPGDWPRP | 0.92 |
| RRIRIRPPRLPRPRPRPPASPRP | 0.276 |
| RRIRYRPPRLPRPRPRPNFFPRP | -0.074 |
| RRIRLRPPRLPRPRPRPQRTPRP | 0.43 |
| RRIRWRPPRLPRPRPRPEPQPRP | 0.818 |
| RRIRFRPPRLPRPRPRPPKGPRP | -0.0971 |
| RRIRQRPPRLPRPRPRPDGWPRP | 0.228 |
| RRIRSRPPRLPRPRPRPCGIPRP | -0.0619 |
| RRIRSRPPRLPRPRPRPHYLPRP | -0.403 |
| RRIRIRPPRLPRPRPRPGMIPRP | -0.309 |
| RRIRHRPPRLPRPRPRPLDLPRP | 0.441 |
| RRIRRRPPRLPRPRPRPWNWPRP | 2.98 |
| RRIRWRPPRLPRPRPRPFYDPRP | -0.21 |
| RRIRQRPPRLPRPRPRPHLYPRP | -0.129 |
| RRIRQRPPRLPRPRPRPVKSPRP | 0.169 |
| RRIRVRPPRLPRPRPRPCYVPRP | -0.0957 |

| Sequence | shrunken log2 fold change |
| --- | --- |
| RRIRLRPPRLPRPRPRPTSEPRP | -0.0829 |
| RRIRWRPPRLPRPRPRPTDKPRP | -0.0481 |
| RRIRCRPPRLPRPRPRPIWPPRP | 0.415 |
| RRIRHRPPRLPRPRPRPINRPRP | 0.0787 |
| RRIRVRPPRLPRPRPRPMLKPRP | -0.293 |
| RRIRSRPPRLPRPRPRPQQNPRP | -0.0687 |
| RRIRYRPPRLPRPRPRPSWEPRP | -0.153 |
| RRIRGRPPRLPRPRPRPLAAPRP | 1.91 |
| RRIRFRPPRLPRPRPRPCHDPRP | 0.236 |
| RRIRKRPPRLPRPRPRPPMPPRP | 0.525 |
| RRIRHRPPRLPRPRPRPYCAPRP | -0.346 |
| RRIRNRPPRLPRPRPRPYCVPRP | -0.172 |
| RRIRQRPPRLPRPRPRPSRAPRP | 0.19 |
| RRIRARPPRLPRPRPRPMVSPRP | 0.124 |
| RRIRVRPPRLPRPRPRPWGSPRP | -0.137 |
| RRIRVRPPRLPRPRPRPTWFPRP | 0.177 |
| RRIRGRPPRLPRPRPRPIVHPRP | 0.342 |
| RRIRWRPPRLPRPRPRPAIFPRP | 0.327 |
| RRIRDRPPRLPRPRPRPGGVPRP | 0.434 |
| RRIRGRPPRLPRPRPRPIRYPRP | -0.0811 |
| RRIRTRPPRLPRPRPRPMKDPRP | -0.303 |
| RRIRSRPPRLPRPRPRPDVDPRP | 0.0112 |
| RRIRYRPPRLPRPRPRPPKHPRP | -0.165 |
| RRIRVRPPRLPRPRPRPLNWPRP | 1.03 |
| RRIRWRPPRLPRPRPRPRHRPRP | 0.138 |

| Sequence | shrunken log2 fold change |
| --- | --- |
| RRIRTRPPRLPRPRPRPVYMPRP | -0.382 |
| RRIRNRPPRLPRPRPRPLCCPRP | -0.371 |
| RRIRRRPPRLPRPRPRPQWFPRP | -0.076 |
| RRIRPRPPRLPRPRPRPQARPRP | 0.208 |
| RRIRDRPPRLPRPRPRPVVHPRP | 0.0965 |
| RRIRSRPPRLPRPRPRPYCHPRP | -0.532 |
| RRIRPRPPRLPRPRPRPDYSPRP | -0.815 |
| RRIRLRPPRLPRPRPRPFIKPRP | -0.66 |
| RRIRLRPPRLPRPRPRPGYAPRP | 0.119 |
| RRIRSRPPRLPRPRPRPRFRPRP | 0.203 |
| RRIRQRPPRLPRPRPRPSEPPRP | 0.0286 |
| RRIRGRPPRLPRPRPRPHAGPRP | 1.06 |
| RRIRPRPPRLPRPRPRPVYHPRP | -0.388 |
| RRIRFRPPRLPRPRPRPPNKPRP | 0.1 |
| RRIRHRPPRLPRPRPRPFFTPRP | -0.231 |
| RRIRYRPPRLPRPRPRPSWTPRP | -1.11 |
| RRIRARPPRLPRPRPRPLMYPRP | -0.165 |
| RRIRMRPPRLPRPRPRPKQSPRP | 0.757 |
| RRIRARPPRLPRPRPRPVTCPRP | 0.0514 |
| RRIRVRPPRLPRPRPRPVVYPRP | 0.0805 |
| RRIRARPPRLPRPRPRPDCVPRP | 0.813 |
| RRIRERPPRLPRPRPRPAYVPRP | -0.859 |
| RRIRDRPPRLPRPRPRPWHVPRP | 0.015 |
| RRIRYRPPRLPRPRPRPFYFPRP | -0.961 |
| RRIRNRPPRLPRPRPRPQTMPRP | -0.238 |

| Sequence | shrunken log2 fold change |
| --- | --- |
| RRIRLRPPRLPRPRPRPVVFPRP | -0.136 |
| RRIRKRPPRLPRPRPRPIKEPRP | -0.0178 |
| RRIRWRPPRLPRPRPRPRMGPRP | 0.357 |
| RRIRWRPPRLPRPRPRPPPEPRP | 0.822 |
| RRIRNRPPRLPRPRPRPAYRPRP | 0.105 |
| RRIRCRPPRLPRPRPRPNMRPRP | 0.357 |
| RRIRFRPPRLPRPRPRPMKSPRP | -0.198 |
| RRIRRRPPRLPRPRPRPDNNPRP | -0.187 |
| RRIRARPPRLPRPRPRPQQVPRP | 0.0996 |
| RRIRTRPPRLPRPRPRPMEDPRP | -0.00968 |
| RRIRFRPPRLPRPRPRPTLTPRP | 0.445 |
| RRIRARPPRLPRPRPRPWASPRP | -0.145 |
| RRIRRRPPRLPRPRPRPNNSPRP | -0.356 |
| RRIRHRPPRLPRPRPRPGDYPRP | -0.212 |
| RRIRYRPPRLPRPRPRPFVCPRP | -0.0345 |
| RRIRQRPPRLPRPRPRPMMDPRP | -0.137 |
| RRIRNRPPRLPRPRPRPDMVPRP | 0.00433 |
| RRIRIRPPRLPRPRPRPGNWPRP | -0.35 |
| RRIRQRPPRLPRPRPRPHIMPRP | -0.669 |
| RRIRWRPPRLPRPRPRPMRFPRP | 0.00175 |
| RRIRRRPPRLPRPRPRPFETPRP | -0.207 |
| RRIRYRPPRLPRPRPRPFRFPRP | -0.83 |
| RRIRIRPPRLPRPRPRPHLTPRP | -0.379 |
| RRIRKRPPRLPRPRPRPREEPRP | 1.2 |
| RRIRIRPPRLPRPRPRPAPVPRP | 0.171 |

| Sequence | shrunken log2 fold change |
| --- | --- |
| RRIRCRPPRLPRPRPRPKMGPRP | 0.0549 |
| RRIRPRPPRLPRPRPRPWKHPRP | -0.19 |
| RRIRSRPPRLPRPRPRPMPVPRP | 0.0216 |
| RRIRARPPRLPRPRPRPWWLPRP | -8.93e-05 |
| RRIRNRPPRLPRPRPRPHDCPRP | -0.124 |
| RRIRQRPPRLPRPRPRPYNDPRP | 0.00408 |
| RRIRARPPRLPRPRPRPMGDPRP | -0.0121 |
| RRIRNRPPRLPRPRPRPECFPRP | 0.0864 |
| RRIRIRPPRLPRPRPRPMLDPRP | 0.0726 |
| RRIRFRPPRLPRPRPRPKNYPRP | -0.525 |
| RRIRFRPPRLPRPRPRPPCIPRP | -0.0411 |
| RRIRCRPPRLPRPRPRPEWEPRP | -0.00663 |
| RRIRKRPPRLPRPRPRPAWYPRP | 0.205 |
| RRIRRRPPRLPRPRPRPEQDPRP | 0.727 |
| RRIRERPPRLPRPRPRPHAFPRP | -0.0188 |
| RRIRTRPPRLPRPRPRPSIHPRP | -0.561 |
| RRIRERPPRLPRPRPRPYHPPRP | -0.248 |
| RRIRYRPPRLPRPRPRPRQFPRP | -0.379 |
| RRIRFRPPRLPRPRPRPCYTPRP | -0.239 |
| RRIRRRPPRLPRPRPRPISHPRP | -0.215 |
| RRIRMRPPRLPRPRPRPECQPRP | 3.29 |
| RRIRNRPPRLPRPRPRPQRGPRP | 0.237 |
| RRIRIRPPRLPRPRPRPFLKPRP | -0.341 |
| RRIRKRPPRLPRPRPRPPRIPRP | 0.323 |
| RRIRGRPPRLPRPRPRPPVFPRP | 0.647 |

Reference: the supplement of paper PMC9112550, “Optimization of the antimicrobial peptide Bac7 by deep mutational scanning” (BMC Biology, 2022)
